Biological target: T1, methylamine dehydrogenase (quinone MADH) (Paracoccus denitrificans, UniProt P22619)
T1 chain 1: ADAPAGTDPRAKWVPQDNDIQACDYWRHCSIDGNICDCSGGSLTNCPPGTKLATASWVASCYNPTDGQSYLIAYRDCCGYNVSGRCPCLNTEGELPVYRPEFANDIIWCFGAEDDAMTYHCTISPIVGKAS
T1 chain 2: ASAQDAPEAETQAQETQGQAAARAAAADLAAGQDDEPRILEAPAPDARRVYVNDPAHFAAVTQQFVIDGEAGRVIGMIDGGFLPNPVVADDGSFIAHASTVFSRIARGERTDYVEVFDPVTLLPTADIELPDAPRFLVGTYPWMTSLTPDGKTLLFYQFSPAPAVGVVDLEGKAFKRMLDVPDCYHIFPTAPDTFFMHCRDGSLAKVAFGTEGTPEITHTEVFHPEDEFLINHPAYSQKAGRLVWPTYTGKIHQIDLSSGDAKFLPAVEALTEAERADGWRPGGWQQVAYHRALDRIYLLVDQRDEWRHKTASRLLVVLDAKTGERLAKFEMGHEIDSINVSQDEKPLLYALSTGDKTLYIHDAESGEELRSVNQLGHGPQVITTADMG
Assay: single-turnover kinetics

B1: MauG (protein)
chain: EQARPADDALAALGAQLFVDPALSRNATQSCATCHDPARAFTDPREGKAGLAVSVGDDGQSHGDRNTPTLGYAALVPAFHRDANGKYKGGQFWDGRADDLKQQAGQPMLNPVEMAMPDRAAVAARLRDDPAYRTGFEALFGKGVLDDPERAFDAAAEALAAYQATGEFSPFDSKYDRVMRGEEKFTPLEEFGYTVFITWNCRLCHMQRKQGVAERETFTNFEYHNIGLPVNETAREASGLGADHVDHGLLARPGIEDPAQSGRFKVPSLRNVAVTGPYMHNGVFTDLRTAILFYNKYTSRRPEAKINPETGAPWGEPEVARNLSLAELQSGLMLDDGRVDALVAFLETLTDRRYEPLLEESRAAQKD
  Kd: 10.4 µM
